This assay addresses full-length Smad2, wild type (S2FLWT), Q15796. Description: SAXS with ensemble optimization method. The conditions noted are these: remark: other sources report otherwise.

B1: full-length Smad2, wild type (S2FLWT), Q15796 1-467 (natural protein)
chain: MSSILPFTPPVVKRLLGWKKSAGGSGGAGGGEQNGQEEKWCEKAVKSLVKKLKKTGRLDELEKAITTQNCNTKCVTIPSTCSEIWGLSTPNTIDQWDTTGLYSFSEQTRSLDGRLQVSHRKGLPHVIYCRLWRWPDLHSHHELKAIENCEYAFNLKKDEVCVNPYHYQRVETPVLPPVLVPRHTEILTELPPLDDYTHSIPENTNFPAGIEPQSNYIPETPPPGYISEDGETSDQQLNQSMDTGSPAELSPTTLSPVNHSLDLQPVTYSEPAFWCSIAYYELNQRVGETFHASQPSLTVDGFTDPSNSERFCLGLLSNVNRNATVEMTRRHIGRGVRLYYIGGEVFAECLSDSAIFVQSPNCNQRYGWHPATVCKIPPGCNLKIFNNQEFAALLAQSVNQGFEAVYQLTRMCTIRMSFVKGWGAEYRRQTVTSTPCWIELHLNGPLQWLDKVLTQMGSPSVRCSSMS
B1 had a percent of the population as dimer at 56 μM of 18%, a percent of the population as trimer at 13.8 μM of 1% and a percent of the population as trimer at 56.1 μM of 16.4%.

These data come from paper doi:10.1101/2021.04.13.439655.
